Data from patent US11733246B2, “Compositions, imaging, and therapeutic methods targeting folate receptor 1 (FOLR1)” (Indi Molecular, Inc., priority 2020, dated 2023).
Like-named read-outs stand apart in the source and are kept apart here. One block for each molecule: values may come before it. Numbered stars: 1 amine (or outer) side, 2 acyl side, 3 side chain; on linkers, the order of the positions; unused ones are H or OH. Bridge positions count the residues as written; N and C are the ends. Square brackets hold non-standard residues; d marks the D form. Triazole bridges read from a SMILES are 1,4-linked. Side chains are listed from the residue outwards. Peptide text beside a SMILES is read from it. * marks the point of attachment. DOTA = O=C(O)CN1CCN(CC(=O)O)CCN(CC(=O)*)CCN(CC(=O)O)CC1; Pteroyl = Nc1nc2ncc(CNc3ccc(C(=O)*)cc3)nc2c(=O)[nH]1; Biotin = O=C1N[C@H]2[C@H](CS[C@H]2CCCCC(=O)*)N1; PEG10 = NCCOCCOCCOCCOCCOCCOCCOCCOCCOCCOCCC(=O)O; Butanoyl(4-(4-MePh)) = Cc1ccc(CCCC(=O)*)cc1; Lys(N3) = [N-]=[N+]=NCCCC[C@H](N)C(=O)O; γGlu = O=C(O)[C@H](CCC(=O)[*:2])N[*:1]; AEEEA = NCCOCCOCCOCC(=O)O; Pra = C#CC[C@H](N)C(=O)O

Columns and labels:
[1] = molecular target: T1, FOLR1 (Homo sapiens, UniProt P15328); assay: ELISA assay of FOLR1 binding
T1 construct: His; purchased SinoBiological 11241-H08H
T1 sequence (P15328 25-234): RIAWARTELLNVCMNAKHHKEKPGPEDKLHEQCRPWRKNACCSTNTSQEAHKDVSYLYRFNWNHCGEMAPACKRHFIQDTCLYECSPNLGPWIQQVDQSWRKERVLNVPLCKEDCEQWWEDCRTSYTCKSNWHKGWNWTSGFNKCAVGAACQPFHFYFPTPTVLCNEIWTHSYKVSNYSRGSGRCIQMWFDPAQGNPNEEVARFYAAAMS
From the text: FIG. 5 is a diagram of ELISA assay of FOLR1 binding of heterobiligands.
Nonclinical studies were first conducted with Folate-hshta-PEG10-PEG10-K(Biotin), where Folate-hshta is the targeting heterobiligand, PEG10 is a deca(ethylene glycol) linker, and K(Biotin) is the detection label.

[2] = tested on: OVCAR3 xenografts; assay: 177Lu FOLR1 radioligand therapy in OVCAR3 xenograft model; type: in vivo, mouse; conditions: for body weight change: single dose
Method: Water and food were provided ad libitum. […] Tumor growth was monitored by caliper measurements.
OVCAR3 tumor bearing mice were used to study FOLR1-directed radioligand therapy (RLT) for treatment of ovarian cancer. Animals were administered a single dose of heterobiligand (vehicle control) or 111, 37, 18.5, 9.25, or 3.7 MBq [^177Lu]DOTA-labeled heterobiligand. Mice received the dose intravenously (i.v.) via the tail vein. To monitor the effect of the RLT, tumor size measurements were taken twice weekly and body weights were measured.
The engraftment was allowed to expand until palpable tumor sizes ranging in size from 218-384 mm^3 were detected. […] These observed effects were consistant with radiation overdosing. […] The best response was observed using 9.25 MBq Lu-177 Heterobiligand (compound #2809).
Single dose treatments at 18.5 MBq/nmol specific activity. OVCAR3 mouse model was used. 10^7 cell tumors were implanted in the mice one month before administration of ^177Lu-#6305. Five mice each were administered Cold #6305, 9.25 MBq Lu177-#6305, and 14.8 MBq Lu177-#6305, and two mice were administered 29.6 MBq Lu177-#6305. Tumor growth and body weight were then monitored.
Female NSG mice were implanted subcutaneously with OVCAR3 cells. Once tumors reached volumes of 200 mm^3, the animals were treated with 177-Lu 7327. Three treatment arms of 9.25 MBq, 14.8 MBq, and 29.6 MBq were studied.
Female NSG mice were implanted subcutaneously with human OVCAR3 (FOLR+) ovarian cancer cells. Once tumors reached volumes of 200 mm^3, the animals were treated with Indi ^177Lu-7327. One treatment arm of 74 MBq and a control group of 0 MBq were studied (FIGS. 41 and 38A). […] The second dose was administered 21 days following the first dose. Statistically significant differential between treated and control was reached 24 days post-injection (three days following the second dose) for the 74 MBq arm. P values (* for p≤0.05, ** for p≤0.01) were determined by ordinary one-way ANOVA with Tukey's multiple comparisons test.

[3] = Maximum tolerated dose / tolerability study
Method: Animals were monitored for signs of toxicity and weighed twice weekly. […] The second and third doses were administered 21 days following the previous dose.
Two separate MTD experiments were undertaken. […] A second experiment interrogated lower doses.
Mouse body weight and behavior were monitored. […] The second and third doses were administered 21 days following the previous dose.

[4] = Gamma counting of tissue radioactivity; type: in vivo, mouse; conditions: for kidney radioactivity / liver radioactivity / tumor radioactivity: Day 28 post-injection
From the text: 7 days after Lu177-#6305 injection, the 29.6 MBq group lost 20% body weight. These mice were sacrificed. Tissues and plasma were collected for evaluation of radioactivity by gamma counting. The toxicity may have resulted from its accumulation in the kidneys and liver (FIG. 28). At study endpoint (Day 28 post-injection), plasma, tumors, kidneys, lungs, hearts, livers, and muscles from 9.25 MBq and 14.8 MBq treatment groups were collected for evaluation of radioactivity by gamma counting (FIG. 29).

[5] = albumin binder / DOTA tagged biotin-labeled heterobiligands, read-out: EC50
[6] = 29.6 MBq group, Day 7 post-injection

EC50 [1, 5]: 0.098 nM
SMILES: C[C@H](O)[C@H]1NC(=O)[C@@H](Cc2c[nH]cn2)NC(=O)[C@@H](CO)NC(=O)[C@@H](Cc2c[nH]cn2)NC(=O)[C@@H](NC(=O)CC[C@H](NC(=O)c2ccc(NCc3cnc4nc(N)[nH]c(=O)c4n3)cc2)C(=O)O)Cc2cn(nn2)CCCC[C@@H](C(=O)NCCOCCOCCOCC(=O)N[C@@H](CCCCNC(=O)CN2CCN(CC(=O)O)CCN(CC(=O)O)CCN(CC(=O)O)CC2)C(=O)NCCOCCOCCOCCOCCOCCOCCOCCOCCOCCOCCC(=O)NCCOCCOCCOCCOCCOCCOCCOCCOCCOCCOCCC(=O)N[C@@H](CCCCNC(=O)CCCC[C@@H]2SC[C@@H]3NC(=O)N[C@@H]32)C(N)=O)NC(=O)[C@@H](C)NC1=O [Folate-hshta-DOTA] ({Pteroyl-γGlu}-[Pra][dH][dS][dH][dT][dA][Lys(N3)][AEEEA]K(DOTA)[PEG10][PEG10]K(Biotin)-NH2; triazole 1-7)

EC50 [1, 5]: 0.11 nM
SMILES: Cc1ccc(CCCC(=O)NCCCC[C@H](NC(=O)COCCOCCOCCNC(=O)[C@@H]2CCCCn3cc(nn3)C[C@H](NC(=O)CC[C@H](NC(=O)c3ccc(NCc4cnc5nc(N)[nH]c(=O)c5n4)cc3)C(=O)O)C(=O)N[C@H](Cc3c[nH]cn3)C(=O)N[C@H](CO)C(=O)N[C@H](Cc3c[nH]cn3)C(=O)N[C@H]([C@H](C)O)C(=O)N[C@H](C)C(=O)N2)C(=O)NCCOCCOCCOCCOCCOCCOCCOCCOCCOCCOCCC(=O)NCCOCCOCCOCCOCCOCCOCCOCCOCCOCCOCCC(=O)N[C@@H](CCCCNC(=O)CCCC[C@@H]2SC[C@@H]3NC(=O)N[C@@H]32)C(N)=O)cc1 [Folate-hshta-MPBA] ({Pteroyl-γGlu}-[Pra][dH][dS][dH][dT][dA][Lys(N3)][AEEEA]K(Butanoyl(4-(4-MePh)))[PEG10][PEG10]K(Biotin)-NH2; triazole 1-7)

SMILES: C[C@H](O)[C@H]1NC(=O)[C@@H](Cc2cnc[nH]2)NC(=O)[C@@H](CO)NC(=O)[C@@H](Cc2cnc[nH]2)NC(=O)[C@@H](NC(=O)CC[C@H](NC(=O)c2ccc(NCc3cnc4nc(N)[nH]c(=O)c4n3)cc2)C(=O)O)Cc2cn(nn2)CCCC[C@@H](C(=O)NCC(=O)N[C@@H](Cc2ccccc2)C(=O)N[C@@H](CCCCNC(=O)CN2CCN(CC(=O)O)CCN(CC(=O)O)CCN(CC(=O)O)CC2)C(=O)O)NC(=O)[C@@H](C)NC1=O [Indi ^177Lu-7327, Folate-hshta-G-F-K(^177Lu-DOTA)-OH, metal not drawn] ({Pteroyl-γGlu}-[Pra][dH][dS][dH][dT][dA][Lys(N3)]GFK(DOTA)-OH; triazole 1-7)
loss of body weight ([2]; 29.6 MBq, after second dose): 5-10% | body weight ([2]; highest dose (29.6 MBq), after second dose): modest loss of body weight | body weights of treated mice ([2]; mouse, in vivo): normal body weights (+/−10%) | tolerability of first dose ([2]; mouse, in vivo): well tolerated | radioactive dose tolerated, three treatments ([3]; healthy, non-tumor bearing female NSG mice): up to 111 MBq

SMILES: C[C@H](O)[C@H]1NC(=O)[C@@H](Cc2ccc(O)cc2)NC(=O)[C@@H](CCCNC(=N)N)NC(=O)[C@@H](CCC(=O)O)NC(=O)[C@@H](CC(=O)O)NC(=O)[C@@H](NC(=O)[C@H](CCCCNC(=O)COCCOCCOCCNC(=O)CC[C@H](NC(=O)c2ccc(NCc3cnc4nc(N)[nH]c(=O)c4n3)cc2)C(=O)O)NC(=O)CCOCCOCCOCCOCCOCCOCCOCCOCCOCCOCCNC(=O)CCOCCOCCOCCOCCOCCOCCOCCOCCOCCOCCNC(=O)CCCC[C@@H]2SC[C@@H]3NC(=O)N[C@@H]32)Cc2cn(nn2)CCCC[C@@H](C(N)=O)NC1=O [Lys (PEG3 -Folate)-deryt] ({Biotin-PEG10-PEG10}-K([AEEEA-γGlu-Pteroyl])[Pra][dD][dE][dR][dY][dT][Lys(N3)]-NH2; triazole 2-8)
EC50 ([1]; EC50, deryt heterobiligands, ELISA): 0.16 nM

SMILES: Cc1ccc(CCCC(=O)NCCCC[C@H](NC(=O)[C@@H]2CCCCn3cc(nn3)C[C@H](NC(=O)CC[C@H](NC(=O)c3ccc(NCc4cnc5nc(N)[nH]c(=O)c5n4)cc3)C(=O)O)C(=O)N[C@H](Cc3c[nH]cn3)C(=O)N[C@H](CO)C(=O)N[C@H](Cc3c[nH]cn3)C(=O)N[C@H]([C@H](C)O)C(=O)N[C@H](C)C(=O)N2)C(=O)NCC(=O)N[C@@H](Cc2ccccc2)C(=O)N[C@@H](CCCCNC(=O)CN2CCN(CC(=O)O)CCN(CC(=O)O)CCN(CC(=O)O)CC2)C(=O)O)cc1 [^177Lu-#6305, metal not drawn] ({Pteroyl-γGlu}-[Pra][dH][dS][dH][dT][dA][Lys(N3)]K(Butanoyl(4-(4-MePh)))GFK(DOTA)-OH; triazole 1-7)
body weight change ([2]; 9.25 MBq and 14.8 MBq): No significant body weight change | body weight loss ([2]; 29.6 MBq, 7 days after injection): 20% | body weight change ([2]; 29.6 MBq): substantial body weight decrease | kidney radioactivity ([4]; 9.25 MBq group): 414 CPM/g | liver radioactivity ([4]; 9.25 MBq group): 685 CPM/g | tumor radioactivity ([4]; 9.25 MBq group): 33 CPM/g | liver/kidney ratio ([4]; 14.8 MBq group on Day 28): 1.94 | kidney radioactivity ([4]; 14.8 MBq group): 653 CPM/g | liver radioactivity ([4]; 14.8 MBq group): 1,264 CPM/g | tumor radioactivity ([4]; 14.8 MBq group): 60 CPM/g | liver/kidney ratio ([4]; 29.6 MBq group on Day 7): 0.27 | radioactivity in the kidney [4, 6]: 394,834 CPM/g | radioactivity in the liver [4, 6]: 107,374 CPM/g | radioactivity in the tumor [4, 6]: 42,674 CPM/g | tissue to tissue ratio at 672 h ([4]; mouse, tumor and kidney, total radioactivity, 14.8 MBq group, Day 28): 0.093 | tissue to tissue ratio at 168 h ([4]; mouse, tumor and kidney, total radioactivity, 29.6 MBq group, Day 7): 0.108 | body weight ([3]; doses of 29.6, 37, 111 and 185 MBq, first dose): weight loss after the first dose | tolerability of second dose ([3]; second dose 7 days after the first (29.6-185 MBq)): not tolerated | tolerability of second dose ([3]; second dose administered 21 days (14.8-22.2 MBq)): not tolerated | body weight ([3]; single dose of 14.8, 18.5 and 22.2 MBq): only minimal loss in body weight
